Data on one molecule can be found in patent US20250381289A1 (Genmab, published 2025).

For assay [1], the target named is T1, EGFR on EGFR and cMET co-expressed tumor cell lines (UniProt P00533 25-1210, limits assumed).
T1 construct: whole, on cells
The assay is described as follows: flow cytometry, SNU-5 cells (co-express EGFR and cMET; both arms contribute).

For assay [2], the target named is T2, cMET on EGFR and cMET co-expressed tumor cell lines (UniProt P08581 25-1390, limits assumed).
T2 construct: whole, on cells
The description is as above.

Assay [3] deals with human HER2 recombinant protein (human, UniProt P04626 23-652). The assay is described as follows: ELISA, coated human HER2, anti-human Fc-HRP.
Protocol: (§1) Binding specificity was tested by ELISA according to the standard protocol. Specifically, 96-well plates were coated with 100 ng/well human EGFR, human HER2, human HER3, human HER4, human cMET, human Sema3A recombinant protein in PBS, incubated overnight at 4° C. Plates were washed twice by TBS+0.05% Tween20. 200 μL blocking buffer (2% BSA in PBS) was added to each well and incubated at 37° C. for 2 h. After wash, Serial diluted antibodies were added to the ELISA plate with 100 μL per well and incubated for 1 h at room temperature. Then plates were washed for 3 times. HRP conjugated anti-human Fc antibody solution (Abcam, ab98624) was added to the plate with 100 μL per well. The plates were incubated at room temperature for 1 h and then washed for 3 times. […] Finally, read the absorbance at A₄₅₀ and A₆₃₀.
For assay [4], the target named is T3, human HER4 recombinant protein (human, UniProt Q15303 26-649, limits assumed).
T3 sequence (looked up): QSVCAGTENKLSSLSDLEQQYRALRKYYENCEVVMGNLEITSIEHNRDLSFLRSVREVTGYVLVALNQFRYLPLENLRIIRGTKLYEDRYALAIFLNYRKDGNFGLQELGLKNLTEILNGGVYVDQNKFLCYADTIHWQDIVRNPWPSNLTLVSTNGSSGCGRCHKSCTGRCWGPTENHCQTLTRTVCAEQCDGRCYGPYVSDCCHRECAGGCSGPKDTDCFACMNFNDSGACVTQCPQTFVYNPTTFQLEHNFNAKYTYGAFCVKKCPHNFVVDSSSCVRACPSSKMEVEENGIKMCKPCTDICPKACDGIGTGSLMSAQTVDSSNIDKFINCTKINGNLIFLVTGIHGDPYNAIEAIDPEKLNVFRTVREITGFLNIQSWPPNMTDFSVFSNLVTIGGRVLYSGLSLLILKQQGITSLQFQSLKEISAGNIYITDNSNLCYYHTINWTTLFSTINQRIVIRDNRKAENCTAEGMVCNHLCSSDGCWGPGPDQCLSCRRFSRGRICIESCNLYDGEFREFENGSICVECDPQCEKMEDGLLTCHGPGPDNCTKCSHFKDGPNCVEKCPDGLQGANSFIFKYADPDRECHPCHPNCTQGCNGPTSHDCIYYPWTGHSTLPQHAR
The assay is described as follows: ELISA, coated human HER4, anti-human Fc-HRP.
Protocol: as §1

Assay [5] addresses T1, EGFR on EGFR and cMET co-expressed …. The assay is described as follows: flow cytometry, EBC-1 cells (co-express EGFR and cMET; both arms contribute).
The target in assay [6] is T2, cMET on EGFR and cMET co-expressed …. The description is as above.
The target in assay [7] is T1, EGFR on EGFR and cMET co-expressed …. Description: flow cytometry, A431 cells (co-express EGFR and cMET; both arms contribute).
The target in assay [8] is T2, cMET on EGFR and cMET co-expressed …. The assay is described as above.
Another assay deals with T4, Human cMET (human).
T4 construct: recombinant protein; also called human cMET recombinant protein
The assay is described as follows: ELISA, coated human cMET, anti-human Fc-HRP.

Assay [9] deals with T5, human Sema3A recombinant protein (human, UniProt Q14563 21-771, limits assumed).
T5 sequence (looked up): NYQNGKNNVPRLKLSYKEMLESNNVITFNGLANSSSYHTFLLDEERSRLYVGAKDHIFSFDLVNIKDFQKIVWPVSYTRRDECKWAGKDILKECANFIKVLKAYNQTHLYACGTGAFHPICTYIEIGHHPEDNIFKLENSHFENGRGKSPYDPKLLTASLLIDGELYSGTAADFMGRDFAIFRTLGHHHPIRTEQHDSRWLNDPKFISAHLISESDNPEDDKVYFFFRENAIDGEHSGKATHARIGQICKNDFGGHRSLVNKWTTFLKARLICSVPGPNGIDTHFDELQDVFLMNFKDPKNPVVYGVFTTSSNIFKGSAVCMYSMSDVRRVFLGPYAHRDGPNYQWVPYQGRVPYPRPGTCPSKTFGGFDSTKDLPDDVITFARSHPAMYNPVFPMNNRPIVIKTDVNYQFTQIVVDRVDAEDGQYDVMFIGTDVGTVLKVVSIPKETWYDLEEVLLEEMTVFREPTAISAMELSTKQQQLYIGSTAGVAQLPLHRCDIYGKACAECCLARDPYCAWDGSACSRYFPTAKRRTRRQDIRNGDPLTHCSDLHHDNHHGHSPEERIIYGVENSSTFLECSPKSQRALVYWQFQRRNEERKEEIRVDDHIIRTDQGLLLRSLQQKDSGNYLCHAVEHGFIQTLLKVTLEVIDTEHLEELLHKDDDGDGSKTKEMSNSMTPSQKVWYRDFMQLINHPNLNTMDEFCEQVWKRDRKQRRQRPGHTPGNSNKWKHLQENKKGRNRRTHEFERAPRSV
The assay is described as follows: ELISA, coated human Sema3A, anti-human Fc-HRP.
Protocol: as §1

T2 sequence (P08581 25-1390 limits assumed): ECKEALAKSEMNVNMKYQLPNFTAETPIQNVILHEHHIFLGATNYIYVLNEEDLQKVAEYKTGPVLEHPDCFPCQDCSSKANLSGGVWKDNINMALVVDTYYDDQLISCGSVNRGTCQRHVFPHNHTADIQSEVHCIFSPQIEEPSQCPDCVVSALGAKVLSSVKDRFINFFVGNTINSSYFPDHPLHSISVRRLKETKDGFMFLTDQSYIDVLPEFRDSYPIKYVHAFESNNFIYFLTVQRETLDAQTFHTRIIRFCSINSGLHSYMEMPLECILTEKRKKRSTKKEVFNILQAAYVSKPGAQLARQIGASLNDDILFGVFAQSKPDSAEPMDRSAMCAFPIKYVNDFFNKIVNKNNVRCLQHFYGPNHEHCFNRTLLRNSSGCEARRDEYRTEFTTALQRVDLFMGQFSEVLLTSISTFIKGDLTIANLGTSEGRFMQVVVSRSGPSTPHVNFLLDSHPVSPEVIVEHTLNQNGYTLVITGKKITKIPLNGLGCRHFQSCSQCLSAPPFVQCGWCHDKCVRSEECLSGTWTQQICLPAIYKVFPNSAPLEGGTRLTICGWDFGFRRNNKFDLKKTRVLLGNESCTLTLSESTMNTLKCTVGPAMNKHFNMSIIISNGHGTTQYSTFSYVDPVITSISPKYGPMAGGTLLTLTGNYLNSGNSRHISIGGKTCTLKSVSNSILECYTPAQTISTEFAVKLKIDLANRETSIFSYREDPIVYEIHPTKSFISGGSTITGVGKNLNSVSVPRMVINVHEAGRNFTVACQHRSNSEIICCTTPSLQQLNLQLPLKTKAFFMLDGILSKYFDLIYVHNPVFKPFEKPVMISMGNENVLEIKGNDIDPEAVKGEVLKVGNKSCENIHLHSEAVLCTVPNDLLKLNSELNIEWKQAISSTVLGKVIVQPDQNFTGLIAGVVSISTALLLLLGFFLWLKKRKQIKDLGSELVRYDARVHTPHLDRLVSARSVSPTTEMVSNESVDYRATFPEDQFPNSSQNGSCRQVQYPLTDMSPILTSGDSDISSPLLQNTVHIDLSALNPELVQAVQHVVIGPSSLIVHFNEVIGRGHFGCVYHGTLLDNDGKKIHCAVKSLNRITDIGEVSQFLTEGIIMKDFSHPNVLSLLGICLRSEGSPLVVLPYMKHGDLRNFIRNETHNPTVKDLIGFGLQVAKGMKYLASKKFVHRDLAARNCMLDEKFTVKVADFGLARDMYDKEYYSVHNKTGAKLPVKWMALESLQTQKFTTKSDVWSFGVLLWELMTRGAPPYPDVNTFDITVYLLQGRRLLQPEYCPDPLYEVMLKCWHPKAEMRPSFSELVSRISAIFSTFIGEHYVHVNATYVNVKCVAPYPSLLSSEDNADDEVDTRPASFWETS
T4 sequence (P08581 whole entry): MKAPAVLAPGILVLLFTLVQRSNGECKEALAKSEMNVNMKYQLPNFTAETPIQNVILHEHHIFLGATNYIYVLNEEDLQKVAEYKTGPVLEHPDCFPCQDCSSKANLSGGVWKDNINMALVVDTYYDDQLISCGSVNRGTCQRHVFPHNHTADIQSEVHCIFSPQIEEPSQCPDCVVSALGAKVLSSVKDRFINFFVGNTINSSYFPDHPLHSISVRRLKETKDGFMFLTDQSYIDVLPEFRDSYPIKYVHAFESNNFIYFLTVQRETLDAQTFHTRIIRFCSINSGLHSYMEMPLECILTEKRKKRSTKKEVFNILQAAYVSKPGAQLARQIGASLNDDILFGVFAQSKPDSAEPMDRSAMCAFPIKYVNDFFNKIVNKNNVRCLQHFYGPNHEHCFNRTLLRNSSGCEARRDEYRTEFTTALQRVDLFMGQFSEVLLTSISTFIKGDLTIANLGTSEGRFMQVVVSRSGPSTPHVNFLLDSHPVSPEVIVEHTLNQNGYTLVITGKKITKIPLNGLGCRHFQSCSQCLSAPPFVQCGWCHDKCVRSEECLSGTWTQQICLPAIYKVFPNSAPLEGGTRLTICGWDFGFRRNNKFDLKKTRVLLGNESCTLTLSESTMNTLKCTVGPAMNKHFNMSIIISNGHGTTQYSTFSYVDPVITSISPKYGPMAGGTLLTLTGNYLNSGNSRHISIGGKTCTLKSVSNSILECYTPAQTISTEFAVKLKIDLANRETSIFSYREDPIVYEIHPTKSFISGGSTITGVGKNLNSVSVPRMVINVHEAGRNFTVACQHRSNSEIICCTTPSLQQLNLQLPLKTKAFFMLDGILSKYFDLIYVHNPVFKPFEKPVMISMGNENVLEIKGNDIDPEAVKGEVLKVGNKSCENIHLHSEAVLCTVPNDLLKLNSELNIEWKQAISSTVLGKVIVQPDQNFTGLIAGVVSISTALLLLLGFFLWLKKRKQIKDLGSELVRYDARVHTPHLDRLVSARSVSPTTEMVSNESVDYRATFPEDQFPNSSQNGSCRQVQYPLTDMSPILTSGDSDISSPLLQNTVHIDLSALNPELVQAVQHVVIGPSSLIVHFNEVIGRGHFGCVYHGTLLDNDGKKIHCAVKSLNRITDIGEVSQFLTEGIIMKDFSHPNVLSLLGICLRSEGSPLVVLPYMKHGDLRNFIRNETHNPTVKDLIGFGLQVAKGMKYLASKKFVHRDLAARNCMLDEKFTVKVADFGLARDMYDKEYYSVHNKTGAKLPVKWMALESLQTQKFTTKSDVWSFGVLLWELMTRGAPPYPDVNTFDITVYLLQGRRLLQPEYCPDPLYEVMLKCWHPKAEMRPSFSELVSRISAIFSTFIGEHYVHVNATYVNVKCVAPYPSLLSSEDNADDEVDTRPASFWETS
Protocol for Human cMET: as §1

B1: AZD9592-Ab (bispecific antibody, human IgG1, kappa, lambda)
anti EGFR heavy chain: QVQLVQSGAEVKKPGSSVKVSCKASGGTFSDNDFSWVRQAPGQGLEWMGAIVAVFRTETYAQKFQDRVKITADISTRTTYMELSSLRSEDTAVYYCARRLMSAISGPGAPLLMWGQGTLVTVSSASTKGPSVCPLAPSSKSTSGGTAALGCLVKDYFPEPVTVSWNSGALTSGVHTFPAVLQSSGLYSLSSVVTVPSSSLGTQTYICNVNHKPSNTKVDKRVEPKSVDKTHTCPPCPAPEFEGGPSVFLFPPKPKDTLMISRTPEVTCVVVDVSHEDPEVKFNWYVDGVEVHNAKTKPREEQYNSTYRVVSVLTVLHQDWLNGKEYKCKVSNKALPASIEKTISKAKGQPREPQVYTLPPCREEMTKNQVSLWCLVKGFYPSDIAVEWESNGQPENNYKTTPPVLDSDGSFFLYSKLTVDKSRWQQGNVFSCSVMHEALHNHYTQKSLSLSPGK
anti EGFR light chain: QSALTQPRSVSGSPGQSVTISCTGTSSDVGGYNYVSWYQQHPGKAPKLMIYDVSKRPSGVPDRFSGSKSGNTASLTISGLQAEDEADYYCSSYTSSDTLEIFGGGTKLTVLGQPKAAPSVTLFPPCSEELQANKATLVCLISDFYPGAVTVAWKADSSPVKAGVETTTPSKQSNNKYAASSYLSLTPEQWKSHRSYSCQVTHEGSTVEKTVAPTEVS
anti cMET heavy chain: QVQLVQSGAEVKKPGASVKVSCKASGYTFTDYYIHWVRQATGQGLEWMGWMNPNSGNTGYAQKFQGRVTMTRDTSISTAYMELSSLRSEDTAVYYCARGQGYTHSWGQGTMVTVSSASTKGPSVFPLAPSSKSTSGGTAALGCLVKDYFPEPVTVSWNSGALTSGVHTFPAVLQSSGLYSLSSVVTVPSSSLGTQTYICNVNHKPSNTKVDKRVEPKSCDKTHTCPPCPAPEFEGGPSVFLFPPKPKDTLMISRTPEVTCVVVDVSHEDPEVKFNWYVDGVEVHNAKTKPREEQYNSTYRVVSVLTVLHQDWLNGKEYKCKVSNKALPASIEKTISKAKGQPREPQVCTLPPSREEMTKNQVSLSCAVKGFYPSDIAVEWESNGQPENNYKTTPPVLDSDGSFFLVSKLTVDKSRWQQGNVFSCSVMHEALHNHYTQKSLSLSPGK
anti cMET light chain: DIQMTQSPSTLSASVGDRVTITCRASEGIYHWLAWYQQKPGKAPKLLIYKASSLASGVPSRFSGSGSGTEFTLTISSLQPDDFATYYCQQYSNYPPTFGGGTKLEIKRTVAAPSVFIFPPSDEQLKSGTASVVCLLNNFYPREAKVQWKVDNALQSGNSQESVTEQDSKDSTYSLSSTLTLSKADYEKHKVYACEVTHQGLSSPVTKSFNRGEC
notes: also called RAA22/B09-TM
Turning to B1, the “EC50 (read off the curve)” value in assay [1] is approximately 2 nM; in [2] it was approximately 2 nM; in assay [5] it was approximately 1 nM; in [6] it was approximately 1 nM; in assay [7], approximately 10 nM; in assay [8], approximately 10 nM. In addition, the half-maximal effective concentration (EC50 (read off the curve)) with Human cMET is approximately 4 nM. Besides, the binding result is “no binding (tested: about 130 nM)” in assay [3], “no binding (tested: about 130 nM)” in [4] and “no binding (tested: about 120 nM)” in assay [9].
